B4: Mpn400 (residues 41 to 582), His-tagged recombinant, lacking the membrane domain (other)
chain: HHHHHHSSGLVPRGSHMNEVLRLQSGETLIASGRSGNLSFQLYSKVNQNAKSKLNSISLTDGGYRSEIDLGDGSNFREDFRNFANNLSEAITDAPKDLLRPVPKVEVSGLIKTSSTFITPNFKAGYYDQVAADGKTLKYYQSTEYFNNRVVMPILQTTNGTLTANNRAYDDIFVDQGVPKFPGWFHDVDKAYYAGSNGQSEYLFKEWNYYVANGSPLYNVYPNHHFKQIKTIAFDAPRIKQGNTDGINLNLKQRNPDYVIINGLTGDGSTLKDLELPESVKKVSIYGDYHSINVAKQIFKNVLELEFYSTNQDNNFGFNPLVLGDHTNIIYDLFASKPFNYIDLTSLELKDNQDNIDASKLKRAVSDIYIRRRFERQMQGYWAGGYIDRYLVKNTNEKNVNKDNDTVYAALKDINLHLEETYTHGGNTMYRVNENYYPGASAYEAERATRDSEFQKEIVQRAELIGVVFEYGVKNLRPGLKYTVKFESPQEQVALKSTDKFQPVIGSVTDMSKSVTDLIGVLRDNAEILNITNVSKDETVVAELKEKLDRENVFQEIRT

Legend:
[1] = target: B4; assay: Biolayer Interferometry; antibody on protein G sensors, Mpn400 in solution
[2] = target: T1, PGT135 Fab (against HIV-1 gp120, κ light chain); assay: Biolayer Interferometry (Octet Red)
T1 construct: also called Fab PGT135

[3] = target: T2, Fab CR9114 (against influenza hemagglutinin, λ light chain); assay: Biolayer Interferometry (Octet Red)
T2 construct: also called CR9114 Fab

[4] = target: T3, Human IgG3κ (Sigma Aldrich catalog no. 15654), myeloma antibody; assay: Biolayer Interferometry; antibody (printed IgG3λ) on protein G sensors, PM2 in solution
T3 construct: also called IgG3k

[5] = target: T4, Human IgG4κ (Sigma Aldrich catalog no. 14639), myeloma antibody; assay: Biolayer Interferometry; antibody (printed IgG4λ) on protein G sensors, PM2 in solution
[6] = target: T5, 4PL IgG, human multiple myeloma antibody (Mayo Clinic); assay: Biolayer Interferometry; antibody on protein G sensors, PM2 in solution
[7] = target: T6, Human IgG2λ (Sigma Aldrich catalog no. 15279), myeloma antibody; assay: as above
T6 construct: also called IgG21

[8] = target: T7, Human IgG2κ (Sigma Aldrich catalog no. 15404), myeloma antibody; assay: as above
T7 construct: also called IgG2k

[9] = target: T3, Human IgG3κ (Sigma Aldrich catalog no. …); assay: Biolayer Interferometry; antibody on protein G sensors, Mpn400 in solution
[10] = target: T5, 4PL IgG, human multiple myeloma …; assay: as above
[11] = target: T6, Human IgG2λ (Sigma Aldrich catalog no. …); assay: as above
[12] = target: T8, Human IgG1κ (Sigma Aldrich catalog no. 15154), myeloma antibody; assay: as above
T8 construct: also called IgG1k

[13] = target: T7, Human IgG2κ (Sigma Aldrich catalog no. …); assay: as above
[14] = target: T4, Human IgG4κ (Sigma Aldrich catalog no. …); assay: as above

B1: 13PL IgG, monoclonal immunoglobulin from multiple myeloma patient 13PL (human IgG1κ) (antibody, V domains shown)
VH: AVSLVESGGGTVEPGSTLRLSCAASGFTFGSYAFHWVRQAPGDGLEWVAFISYNGSSKYYANFVKGRFTISRDNSSNTLSLQMNSLKASDTAVYYCARAPDCAQADCHKGAFGYWGQGTLVTVSS
VL: DIEMTQSPSSLSASTGDKVTITCQASQDIAQFLDWYQQRPGDTPKLLIYDASNLAIGVPSRFTGSGSGTDFTFTISSLQPEDIAVYYCQHYDDFPISFGPGTKLETKR
notes: also called multiple myeloma antibody 13PL; Multiple Myeloma antibody (13PL)
- Kd [1]: 0.5 nM

B2: recombinant Protein M TD (His-tagged MG281 residues 74 to 468) (other)
chain: HHHHHHSSGLVPRGSHMSLSLNDGSYQSEIDLSGGANFREKFRNFANELSEAITNSPKGLDRPVPKTEISGLIKTGDNFITPSFKAGYYDHVASDGSLLSYYQSTEYFNNRVLMPILQTTNGTLMANNRGYDDVFRQVPSFSGWSNTKATTVSTSNNLTYDKWTYFAAKGSPLYDSYPNHFFEDVKTLAIDAKDISALKTTIDSEKPTYLIIRGLSGNGSQLNELQLPESVKKVSLYGDYTGVNVAKQIFANVVELEFYSTSKANSFGFNPLVLGSKTNVIYDLFASKPFTHIDLTQVTLQNSDNSAIDANKLKQAVGDIYNYRRFERQFQGYFAGGYIDKYLVKNVNTNKDSDDDLVYRSLKELNLHLEEAYREGDNTYYRVNENYYPGASIYENERASRDSEFQNEILKR
- Kd [2]: 3.7 nM
- Kd [3]: 1.9 nM

B3: PM2 (Protein M TD residues 74 to 482, Tyr158 to phenylalanine) (other)
chain: HHHHHHSSGLVPRGSHMSLSLNDGSYQSEIDLSGGANFREKFRNFANELSEAITNSPKGLDRPVPKTEISGLIKTGDNFITPSFKAGYYDHVASDGSLLSYFQSTEYFNNRVLMPILQTTNGTLMANNRGYDDVFRQVPSFSGWSNTKATTVSTSNNLTYDKWTYFAAKGSPLYDSYPNHFFEDVKTLAIDAKDISALKTTIDSEKPTYLIIRGLSGNGSQLNELQLPESVKKVSLYGDYTGVNVAKQIFANVVELEFYSTSKANSFGFNPLVLGSKTNVIYDLFASKPFTHIDLTQVTLQNSDNSAIDANKLKQAVGDIYNYRRFERQFQGYFAGGYIDKYLVKNVNTNKDSDDDLVYRSLKELNLHLEEAYREGDNTYYRVNENYYPGASIYENERASRDSEFQNEILKRAEQNGVTFDENIKR
- Kd [4]: 6.6 nM
- Kd [5]: 1.84 nM
- Kd [6]: 0.6 nM
- Kd [7]: 8.9 nM
- Kd [8]: 9.56 nM

Binder: B4
- Kd [9]: 0.93 nM
- Kd [10]: 0.6 nM
- Kd [11]: 13 nM
- Kd [12]: 0.48 nM
- Kd [13]: 6.23 nM
- Kd [14]: 0.43 nM

Reference: US20170320921A1 (Scripps Research, published 2017)
